Paper PMC9675814, “DNA mechanical flexibility controls DNA potential to activate cGAS-mediated immune surveillance”

How the values were obtained:
hcGAS WT [1] = target: T1, hcGAS WT (Homo sapiens, UniProt Q8N884 1-522); assay: MST; conditions: EMSA: 50 nM Cy3-DNA, 20 mM Tris-HCl pH 7.5, 150 mM NaCl, 37 C 30 min, 1.5% agarose, MST: 50 nM Cy5-DNA, same buffer, room temperature, MARTFQ: 50 nM cGAS
hcGAS WT [2] = target: T1, hcGAS WT; assay: EMSA; EMSA: 50 nM Cy3-DNA, 20 mM Tris-HCl pH 7.5, 150 mM NaCl, 37 C 30 min, 1.5% agarose; MST: 50 nM Cy5-DNA, same buffer, room temperature; MARTFQ: 50 nM cGAS, DNA titration, 5 min; conditions: protein: recombinant, tags: His (pET-28a, Ni purified), label: 5' Cy3 on F (EMSA)
hcGAS WT [3] = target: T1, hcGAS WT; assay: MARTFQ fluorescence quenching; EMSA: 50 nM Cy3-DNA, 20 mM Tris-HCl pH 7.5, 150 mM NaCl, 37 C 30 min, 1.5% agarose; MST: 50 nM Cy5-DNA, same buffer, room temperature; MARTFQ: 50 nM cGAS, DNA titration, 5 min; conditions: protein: recombinant, tags: His (pET-28a, Ni purified)
[4] = blunt, self-complementary strands

T1 sequence (Q8N884 whole entry): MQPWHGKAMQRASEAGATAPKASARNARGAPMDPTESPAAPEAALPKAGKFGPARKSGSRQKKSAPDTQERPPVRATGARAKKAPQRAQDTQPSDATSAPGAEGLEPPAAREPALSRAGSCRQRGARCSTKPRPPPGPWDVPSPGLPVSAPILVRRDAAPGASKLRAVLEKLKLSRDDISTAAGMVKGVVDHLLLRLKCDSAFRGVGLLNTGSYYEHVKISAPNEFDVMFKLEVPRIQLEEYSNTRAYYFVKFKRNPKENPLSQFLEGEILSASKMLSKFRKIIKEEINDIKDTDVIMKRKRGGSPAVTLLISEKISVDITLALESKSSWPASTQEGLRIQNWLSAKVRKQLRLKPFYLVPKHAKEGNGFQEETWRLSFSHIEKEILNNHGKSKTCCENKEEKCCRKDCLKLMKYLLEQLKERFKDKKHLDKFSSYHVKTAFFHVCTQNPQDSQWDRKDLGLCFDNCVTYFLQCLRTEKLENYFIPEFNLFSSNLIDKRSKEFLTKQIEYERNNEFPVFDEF

In the case of 8-OdG ISD, the Kd (hcGAS WT [1]; 8-oxo-dG) is reported as 97.9 nM.

Work on Mis ISD yielded a Kd (hcGAS WT [1]; mismatch) of 108 nM.

With Gap ISD the Kd (hcGAS WT [1]; gap) was 75.8 nM.

Work on Nick ISD yielded a Kd (hcGAS WT [1]; nick) of 150 nM.

Ctrl ISD showed a Kd (hcGAS WT [1]) of 1270 nM.

B1: E8 63 bp (dsDNA)
DNA 1: TTTTATTTATCGCCTCCACGGTGCTGCACGTACGCGCTGTTGGCCGTGTTATCTCGAGTTAGT
DNA 2: ACTAACTCGAGATAACACGGCCAACAGCGCGTACGTGCAGCACCGTGGAGGCGATAAATAAAA
B1: binds (hcGAS WT [2]; blunt).

B2: Gap E8A26 63 bp (dsDNA)
DNA 1: TTTTATTTATCGCCTCCTTTTTTTTTTTTTTTTTTTTTTTTTTCCGTGTTATCTCGAGTTAGT
DNA 2: ACTAACTCGAGATAACACGGAAA
DNA 3: AAAAAAAAAAAAAAAAAAAAAAGGAGGCGATAAATAAAA
modifications: 1 nt gap in R strand
B2: binds (hcGAS WT [2]; gapped duplex, three strands).

B3: pA:pT 44 bp (dsDNA)
DNA 1: AAAAAAAAAAAAAAAAAAAAAAAAAAAAAAAAAAAAAAAAAAAA
DNA 2: TTTTTTTTTTTTTTTTTTTTTTTTTTTTTTTTTTTTTTTTTTTT
B3 was tested, and the Kd (hcGAS WT [3]; blunt) was 3460 ± 637 nM.

B4: Gap pA:pT 44 bp (dsDNA)
DNA 1: B3 DNA 1
DNA 2: TTTTTTTTTTTTTTTTTTTTTT
DNA 3: TTTTTTTTTTTTTTTTTTTTT
modifications: 1 nt gap in dT strand
For B4, the Kd (hcGAS WT [3]; gapped duplex, three strands) was 190 ± 35.2 nM.

B5: pAT 44 bp poly(dA:dT) (dsDNA)
DNA 1: ATATATATATATATATATATATATATATATATATATATATATAT
DNA 2: B5 DNA 1
Molecule B5 has a Kd (hcGAS WT [3]; [4]) of 640 ± 123 nM.

B6: pGC 44 bp poly(dG:dC) (dsDNA)
DNA 1: CGCGCGCGCGCGCGCGCGCGCGCGCGCGCGCGCGCGCGCGCGCG
DNA 2: B6 DNA 1
B6 showed a Kd (hcGAS WT [3]; [4]) of 376 ± 78.8 nM.
